Test results as given in PMC6783867 (2019).

B1: 10th and 11th cadherin repeat domains of the Plutella xylostella cadherin (PxCR10–11), GST-tagged (domain or fragment)
chain: QAVDLKNEGCTADAGDCYSVYYRIVSDISESFKVDAEKNIISLTRELDRADGVRHIVTVAASNQPDATDNPTNVLTVTVFVREANPRPIFENEVYTAGISTMDSINRELFTVKATRTENLSIKYTIDPSSMVADTSLQSVQGSAFELDADSGVLTLKIKPTASMRGMFEFEVIATDTEQATDRAEVKVYIVSDNNRVSFLFQNQLTQVEQYRDFIAQTLSAGFKMACNIDEVIPSTDAGGSPVEGVTEVRAHFIRDNQPVTADVIEALRSDVELLTNIQRTLNTNLLVLTDFVTDISPSVTADAARVIIYLLGALSAALALALACLVLLAAYWFRTRALNRRLEA
B2: Bacillus thuringiensis insecticidal protein (Bt toxin) Cry2Ab30 (natural protein)
chain: MNSVLNSGRTTICDAYNVAAHDPFSFQHKSLDTVQKEWTEWKKNNHSLYLDPIVGTVASFLLKKVGSLVGKRILSELRNLIFPSGSTNLMQDILRETEKFLNQRLNTDTLARVNAELTGLQANVEEFNRQVDNFLNPNRNAVPLSITSSVNTMQQLFLNRLPQFQMQGYQLLLLPLFAQAANLHLSFIRDVILNADEWGISAATLRTYRDYLKNYTRDYSNYCINTYQSAFKGLNTRLHDMLEFRTYMFLNVFEYVSIWSLFKYQSLLVSSGANLYASGSGPQQTQSFTSQDWPFLYSLFQVNSNYVLNGFSGARLSNTFPNIVGLPGSTTTHALLAARVNYSGGISSGDIGASPFNQNFNCSTFLPPLLTPFVRSWLDSGSDREGVATVTNWQTESFETTLGLRSGAFTARGNSNYFPDYFIRNISGVPLVVRNEDLRRPLHYNEIRNIASPSGTPGGARAYMVSVHNRKNNIHAVHENGSMIHLAPNDYTGFTISPIHATQVNNQTRTFISEKFGNQGDSLRFEQNNTTARYTLRGNGNSYNLYLRVSSIGNSTIRVTINGRVYTATNVNTTTNNDGVNDNGARFSDINIGNVVASSNSDVPLDINVTLNSGTQFDLMNIMLVPTNISPLY

What was measured:
[1] = target: Cry2Ab–AVM bioconjugate (Cry2Ab30 conjugated with 4''-O-succinyl avermectin) (Bacillus thuringiensis, 4''-O-succinyl avermectin joined by an amide bond to amino groups of Cry2Ab30; sites and number not determined (Lys 232 named as potential site from a homology model)); experiment: BLI
[2] = target: B1; experiment: BLI

| Binder | koff [1] | koff [2] |
| --- | --- | --- |
| B1 | 0.000569 s⁻¹ |  |
| B2 |  | 0.000567 s⁻¹ |
